Results from paper PMC2711036 (Molecular cell, 2009).

T1: Srs2^CΔ276 (S. cerevisiae, UniProt P12954 1-898)
T1 sequence (looked up): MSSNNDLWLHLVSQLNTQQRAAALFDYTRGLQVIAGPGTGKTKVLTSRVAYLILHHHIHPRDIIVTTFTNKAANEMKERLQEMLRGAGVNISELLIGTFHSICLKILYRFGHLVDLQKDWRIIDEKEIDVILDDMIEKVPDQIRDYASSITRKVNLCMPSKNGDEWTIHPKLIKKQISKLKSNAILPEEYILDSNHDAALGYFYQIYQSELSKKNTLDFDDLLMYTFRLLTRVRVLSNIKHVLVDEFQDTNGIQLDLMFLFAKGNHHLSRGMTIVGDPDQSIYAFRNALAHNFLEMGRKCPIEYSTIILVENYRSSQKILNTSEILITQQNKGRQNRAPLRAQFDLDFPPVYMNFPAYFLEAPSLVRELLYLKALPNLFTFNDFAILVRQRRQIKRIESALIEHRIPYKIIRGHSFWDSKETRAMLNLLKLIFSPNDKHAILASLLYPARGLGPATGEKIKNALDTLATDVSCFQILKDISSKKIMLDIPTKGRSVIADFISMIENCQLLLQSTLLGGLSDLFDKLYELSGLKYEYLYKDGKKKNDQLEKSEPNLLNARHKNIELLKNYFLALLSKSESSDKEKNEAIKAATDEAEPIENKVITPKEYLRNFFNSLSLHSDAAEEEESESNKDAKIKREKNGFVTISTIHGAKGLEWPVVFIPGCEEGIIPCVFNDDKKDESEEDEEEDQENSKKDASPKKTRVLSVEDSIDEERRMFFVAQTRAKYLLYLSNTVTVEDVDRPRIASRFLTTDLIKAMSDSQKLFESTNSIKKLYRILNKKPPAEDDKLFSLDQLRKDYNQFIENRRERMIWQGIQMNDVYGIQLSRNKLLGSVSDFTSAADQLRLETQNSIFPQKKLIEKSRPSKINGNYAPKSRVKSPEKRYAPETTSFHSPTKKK

B1: Rad51 (natural protein, S. cerevisiae (yeast Rad51, yRad51), UniProt P25454 1-400, looked up)
chain: MSQVQEQHISESQLQYGNGSLMSTVPADLSQSVVDGNGNGSSEDIEATNGSGDGGGLQEQAEAQGEMEDEAYDEAALGSFVPIEKLQVNGITMADVKKLRESGLHTAEAVAYAPRKDLLEIKGISEAKADKLLNEAARLVPMGFVTAADFHMRRSELICLTTGSKNLDTLLGGGVETGSITELFGEFRTGKSQLCHTLAVTCQIPLDIGGGEGKCLYIDTEGTFRPVRLVSIAQRFGLDPDDALNNVAYARAYNADHQLRLLDAAAQMMSESRFSLIVVDSVMALYRTDFSGRGELSARQMHLAKFMRALQRLADQFGVAVVVTNQVVAQVDGGMAFNPDPKKPIGGNIMAHSSTTRLGFKKGKGCQRLCKVVDSPCLPEAECVFAIYEDGVGDPREEDE
B2: 5'-Cy3-dT79 (ssDNA)
DNA: TTTTTTTTTTTTTTTTTTTTTTTTTTTTTTTTTTTTTTTTTTTTTTTTTTTTTTTTTTTTTTTTTTTTTTTTTTTTTTT

Columns and labels:
Srs2^CΔ276 = target: T1, Srs2^CΔ276; assay: SPR
Rad51-E221D = Rad51-E221D (Saccharomyces cerevisiae, UniProt P25454 1-400, E221D); assay: stopped-flow Cy3 fluorescence
Rad51 (yRad51 wild type) = Rad51 (yRad51 wild type) (Saccharomyces cerevisiae, UniProt P25454 1-400); assay: stopped-flow Cy3 fluorescence

Binder	Kd (Srs2^CΔ276) [µM]	apparent K (half saturation) (Rad51-E221D) [nM as printed]	apparent K (half saturation) (Rad51 (yRad51 wild type)) [nM as printed]
B1	15.2 ± 5	–	–
B2	–	2.17 ± 0.6	1.55 ± 0.3
